This is an account of results in PMC10773898, “Evidence of DISC1 as an arsenic binding protein and implications regarding its role as a translational activator” (Frontiers in Molecular Biosciences, 2023).

B1: DISC1 C-terminal construct (598-854), WT (domain or fragment, human, UniProt Q9NRI5-1 598-854, looked up)
chain: GNHFFTAKDLTEEIRSLTSEREGLEGLLSKLLVLSSRNVKKLGSVKEDYNRLRREVEHQETAYETSVKENTMKYMETLKNKLCSCKCPLLGKVWEADLEACRLLIQSLQLQEARGSLSVEDERQMDDLEGAAPPIPPRLHSEDKRKTPLKVLEEFKTHLIPSLHCAGGEQKEESYILSAELGEKCEDIGKKLLYLEDQLHTAIHSHDEDLIQSLRRELQMVKETLQAMILQLQPAKEAGEREAAASCMTAGVHEAQA
notes: Disrupted-in-schizophrenia-1 (DISC1), human, residues 598-854, with W602F and W752F so that W691 is the single tryptophan; In pET28b(+) as His-tag fusion; also called DISC1 598-854; C-terminal WT construct; source: E. coli BL21 (DE3), purified (Ni-NTA, SEC)
B2: DISC1 598-854 C680S/C682S/C698S/C762S/C782S/C844S (domain or fragment, human, UniProt Q9NRI5-1 598-854, looked up)
chain: GNHFFTAKDLTEEIRSLTSEREGLEGLLSKLLVLSSRNVKKLGSVKEDYNRLRREVEHQETAYETSVKENTMKYMETLKNKLSSSKCPLLGKVWEADLEASRLLIQSLQLQEARGSLSVEDERQMDDLEGAAPPIPPRLHSEDKRKTPLKVLEEFKTHLIPSLHSAGGEQKEESYILSAELGEKSEDIGKKLLYLEDQLHTAIHSHDEDLIQSLRRELQMVKETLQAMILQLQPAKEAGEREAAASSMTAGVHEAQA
notes: DISC1, human, residues 598-854; source: E. coli BL21 (DE3), purified (Ni-NTA, SEC)
B3: DISC1 598-854 (C698S/C762S/C782S/C844S) (domain or fragment, human, UniProt Q9NRI5-1 598-854, looked up)
chain: GNHFFTAKDLTEEIRSLTSEREGLEGLLSKLLVLSSRNVKKLGSVKEDYNRLRREVEHQETAYETSVKENTMKYMETLKNKLCSCKCPLLGKVWEADLEASRLLIQSLQLQEARGSLSVEDERQMDDLEGAAPPIPPRLHSEDKRKTPLKVLEEFKTHLIPSLHSAGGEQKEESYILSAELGEKSEDIGKKLLYLEDQLHTAIHSHDEDLIQSLRRELQMVKETLQAMILQLQPAKEAGEREAAASSMTAGVHEAQA
notes: DISC1, human, residues 598-854; also called WT*; pseudo-WT variant; source: E. coli BL21 (DE3), purified (Ni-NTA, SEC)
B4: DISC1 598-854 C680S/C684S/C698S/C762S/C782S/C844S (domain or fragment, human, UniProt Q9NRI5-1 598-854, looked up)
chain: GNHFFTAKDLTEEIRSLTSEREGLEGLLSKLLVLSSRNVKKLGSVKEDYNRLRREVEHQETAYETSVKENTMKYMETLKNKLSSCKSPLLGKVWEADLEASRLLIQSLQLQEARGSLSVEDERQMDDLEGAAPPIPPRLHSEDKRKTPLKVLEEFKTHLIPSLHSAGGEQKEESYILSAELGEKSEDIGKKLLYLEDQLHTAIHSHDEDLIQSLRRELQMVKETLQAMILQLQPAKEAGEREAAASSMTAGVHEAQA
notes: as for B2
B5: DISC1 598-854 C682S/C684S/C698S/C762S/C782S/C844S (domain or fragment, human, UniProt Q9NRI5-1 598-854, looked up)
chain: GNHFFTAKDLTEEIRSLTSEREGLEGLLSKLLVLSSRNVKKLGSVKEDYNRLRREVEHQETAYETSVKENTMKYMETLKNKLCSSKSPLLGKVWEADLEASRLLIQSLQLQEARGSLSVEDERQMDDLEGAAPPIPPRLHSEDKRKTPLKVLEEFKTHLIPSLHSAGGEQKEESYILSAELGEKSEDIGKKLLYLEDQLHTAIHSHDEDLIQSLRRELQMVKETLQAMILQLQPAKEAGEREAAASSMTAGVHEAQA
notes: as for B2
B6: DISC1 598-854 C680S/C682S/C684S/C698S/C762S/C782S/C844S (domain or fragment, human, UniProt Q9NRI5-1 598-854, looked up)
chain: GNHFFTAKDLTEEIRSLTSEREGLEGLLSKLLVLSSRNVKKLGSVKEDYNRLRREVEHQETAYETSVKENTMKYMETLKNKLSSSKSPLLGKVWEADLEASRLLIQSLQLQEARGSLSVEDERQMDDLEGAAPPIPPRLHSEDKRKTPLKVLEEFKTHLIPSLHSAGGEQKEESYILSAELGEKSEDIGKKLLYLEDQLHTAIHSHDEDLIQSLRRELQMVKETLQAMILQLQPAKEAGEREAAASSMTAGVHEAQA
notes: DISC1, human, residues 598-854, all cysteines mutated to serine; also called C680S/C6802S/C684S*; C680S/C684S/C682S*; source: E. coli BL21 (DE3), purified (Ni-NTA, SEC)
B7: DISC1 598-854 C684S/C698S/C762S/C782S/C844S (domain or fragment, human, UniProt Q9NRI5-1 598-854, looked up)
chain: GNHFFTAKDLTEEIRSLTSEREGLEGLLSKLLVLSSRNVKKLGSVKEDYNRLRREVEHQETAYETSVKENTMKYMETLKNKLCSCKSPLLGKVWEADLEASRLLIQSLQLQEARGSLSVEDERQMDDLEGAAPPIPPRLHSEDKRKTPLKVLEEFKTHLIPSLHSAGGEQKEESYILSAELGEKSEDIGKKLLYLEDQLHTAIHSHDEDLIQSLRRELQMVKETLQAMILQLQPAKEAGEREAAASSMTAGVHEAQA
notes: as for B2
B8: DISC1 598-854 C682S/C698S/C762S/C782S/C844S (domain or fragment, human, UniProt Q9NRI5-1 598-854, looked up)
chain: GNHFFTAKDLTEEIRSLTSEREGLEGLLSKLLVLSSRNVKKLGSVKEDYNRLRREVEHQETAYETSVKENTMKYMETLKNKLCSSKCPLLGKVWEADLEASRLLIQSLQLQEARGSLSVEDERQMDDLEGAAPPIPPRLHSEDKRKTPLKVLEEFKTHLIPSLHSAGGEQKEESYILSAELGEKSEDIGKKLLYLEDQLHTAIHSHDEDLIQSLRRELQMVKETLQAMILQLQPAKEAGEREAAASSMTAGVHEAQA
notes: as for B2
B9: DISC1 598-854 C680S/C698S/C762S/C782S/C844S (domain or fragment, human, UniProt Q9NRI5-1 598-854, looked up)
chain: GNHFFTAKDLTEEIRSLTSEREGLEGLLSKLLVLSSRNVKKLGSVKEDYNRLRREVEHQETAYETSVKENTMKYMETLKNKLSSCKCPLLGKVWEADLEASRLLIQSLQLQEARGSLSVEDERQMDDLEGAAPPIPPRLHSEDKRKTPLKVLEEFKTHLIPSLHSAGGEQKEESYILSAELGEKSEDIGKKLLYLEDQLHTAIHSHDEDLIQSLRRELQMVKETLQAMILQLQPAKEAGEREAAASSMTAGVHEAQA
notes: as for B2

This data set concerns the molecule itself. The data set is described as follows: SEC; HiLoad 26/600 Superdex 200 pg; 50 mM Tris-HCl, 10 mM NaCl, pH 8.0; self-association of the purified construct. (In general: In gel filtration, larger molecules generally elute earlier.)
As a reminder, the stoichiometry N is the number of molecules, sites or subunits per partner or assembly. With B1, the “stoichiometry N” value was 4.

Consider B2, for which the binding result is recorded as “binds”.

With B3, the binding result is “binds”.

Take B4: the binding result was “binds”.

Turning to B5, the binding result is given as “binds”.

On to B6, for which the binding result is given as “binds”.

Turning to B7, the binding result was “binds”.

B8: the binding result is “binds”.

In the case of B9, the binding result is “binds”.
